The target of experiment [1] is T1, recombinant human IL-23 (human, UniProt Q9NPF7 20-189; P29460 23-328).
T1 construct: also called hIL-23
T1 sequence 1: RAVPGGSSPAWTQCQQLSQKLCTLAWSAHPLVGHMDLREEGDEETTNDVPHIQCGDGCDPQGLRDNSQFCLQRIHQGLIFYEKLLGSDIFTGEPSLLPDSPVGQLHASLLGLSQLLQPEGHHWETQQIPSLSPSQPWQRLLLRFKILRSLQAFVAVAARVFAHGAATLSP
T1 sequence 2: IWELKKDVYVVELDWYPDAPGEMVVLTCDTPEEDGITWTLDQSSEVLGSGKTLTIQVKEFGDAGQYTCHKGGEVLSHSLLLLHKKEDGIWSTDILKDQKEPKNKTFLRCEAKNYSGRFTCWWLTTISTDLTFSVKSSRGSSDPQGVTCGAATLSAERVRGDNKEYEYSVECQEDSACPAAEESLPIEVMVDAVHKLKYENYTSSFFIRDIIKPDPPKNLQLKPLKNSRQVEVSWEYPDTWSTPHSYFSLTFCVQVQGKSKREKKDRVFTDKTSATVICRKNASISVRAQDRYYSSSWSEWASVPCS
Put plainly: sandwich ELISA (optimised protocol, OD450): plate coated with anti-human IL-12, antibody pre-incubated with constant human IL-23, bound antibody detected with anti-human IgG gamma chain HRP; purified antibody. As for the experimental part: Optimised assay conditions: Plates were coated with anti human IL12 at 2 μg/diluent (phosphate buffered saline). 50 μl/well of this mixture was incubated overnight at 4° C. The plates were then washed three times with Phosphate Buffered Saline with 0.05% Tween 20 (PBST). Plates were blocked with 4% skim milk powder (Fluka BioChemika #70166) PBS 200 μl/well for a minimum of 1 hour at room temperature. The plates were then washed three times with Phosphate Buffered Saline+0.05% Tween 20 (PBST). Various concentrations of antibody were incubated in a separate plate with a constant concentration of IL-23 for 1 hour at room temperature. 50 ul of each mixture were transferred to the assay plate and incubated at RT for 1 hr. They were then washed three times with Phosphate Buffered Saline+0.05% Tween 20 (PBST). […] 50 μl/well of the detection antibody was added and incubated at RT for 1 hour. The plates were then washed three times with Phosphate Buffered Saline+0.05% Tween 20 (PBST). 50 μl/well of TMB was added to the plates and incubated at RT for 10 min. 50 μl/well of 1 MH₂SO₄ was added. The plate was read at OD450 nm using the SOftmaxPRO versamax plate reader.
(In an ELISA, binding on a coated surface is turned into a signal by an enzyme label.)

The target of experiment [2] is T1, recombinant human IL-23. Put plainly: IL-23/IL-23R inhibition ELISA (optimised protocol, OD450): plate coated with human IL23R Fc chimera, antibody pre-incubated with constant human IL-23, bound IL-23 detected with biotinylated anti-human IL-12; purified antibody.
Experiment [3] addresses T2, Endogenous human IL-23 (human, UniProt Q9NPF7 20-189; P29460 23-328).
T2 construct: also called endogenous human IL-23 from stimulated dendritic cells
T2 sequence 1: T1 sequence 1
T2 sequence 2: T1 sequence 2
Put plainly: receptor inhibition ELISA: plate coated with recombinant human IL-23 receptor, endogenous human IL-23 at 3.5 ng/ml pre-incubated with titrated purified antibody, bound IL-23 detected with biotinylated anti-human IL-12; 1% BSA. As for the experimental part:
Recombinant human IL-23 Receptor (R&D systems 1400-IR-050) was coated onto 96 well plates at a concentration of 1 μg/ml. Endogenous human IL-23 at 3.5 ng/ml final, was pre incubated for 1 hour with a titration of purified antibody material before being added to the pre-coated plates. Detection was performed with biotinylated anti-human 1L12 (R&D systems BAF-219) followed by Streptavidin-HRP (GE Healthcare RPN 4401). This neutralisation ELISA used 1% BSA.

Experiment [4] deals with T2, Endogenous human IL-23. Put plainly: receptor inhibition ELISA in 25% human pooled AB serum: plate coated with recombinant human IL-23 receptor, endogenous human IL-23 at 5 ng/ml pre-incubated with titrated purified antibody, bound IL-23 detected with biotinylated anti-human IL-12. The procedure: Recombinant human IL-23 Receptor (R&D systems 1400-IR-050) was coated onto 96 well plates at a concentration of 1 μg/ml. Endogenous human IL-23 at 5 ng/ml final, was pre incubated with a titration of purified mAbs before being added to the pre-coated plates. Detection was performed with biotinylated anti-human IL12 (R&D systems BAF-219), followed by Streptavidin-HRP (GE Healthcare RPN 4401). This neutralisation ELISA used 25% human pooled AB type serum.

One may read the EC50 (read off the curve) as the midpoint of the concentration-response curve.

B1: A3M0 (antibody, human IgG1, kappa, V domains shown)
VH: QVQLVQSGAEVKKPGSSVKVSCKASGYTFTSYGITWVRQAPGQGLEWMGENYPRSGNTYYNEKFKGRVTITADKSTSTAYMELSSLRSEDTAVYYCARSEFISTVVAPYYYALDYWGQGTLVTVSS
VL: DIVMTQSPDSLAVSLGERATINCKASKKVTIFGSISALHWYQQKPGQPPKLIYNGAKLESGVPDRFSGSGSGTDFTLTISSLQAEDVAVYYCLQNKEVPYTFGGGTKVEIKR
notes: Full length chains; also called humanized mAb A3M0
As for B1, the “EC50 (read off the curve)” value in the experiment with recombinant human IL-23 [1] is ~0.03 nM. The “IC50 (read off the curve)” value in the experiment with recombinant human IL-23 [2] was ~0.5 nM; in the experiment with Endogenous human IL-23 [3], ~0.005 µg/mL; with Endogenous human IL-23 [4], ~0.01 µg/mL.

B2: chimeric 8C92H6 HC1LC1 (antibody, V domains shown)
VH: QVQLQQSGAELARPGTSVKLSCKASGYTFTSYGITWVKQRTGQGLEWIGENYPRSGNTYYNEKFKGKATLTADKSSSTAYMELRSLTSEDSAVYFCARCEFISTVVAPYYYALDYWGQGTSLVTVS
VL: DIVLTQSPASLAVSLGQKATISCKASKKVTIFGSISALHWYQQKPGQPPKLIYNGAKLESGVSARFSDSGSQNRSPFGNQLSFTLTIDPVEADDAATYYCLQNKEVPYTFGGGTKLEIKR
notes: Murine variable regions with human constant regions; also called 8C92H6.HC1LC1 Chimera; 8C9 chimera
As for B2, the “EC50 (read off the curve)” value with recombinant human IL-23 [1] was ~0.1 nM. Also, the results for the “IC50 (read off the curve)” value with recombinant human IL-23 [2], with Endogenous human IL-23 [3] and in the experiment with Endogenous human IL-23 [4] were ~2 nM, ~0.1 µg/mL and ~0.02 µg/mL, respectively.

These data come from patent US20090123479A1 (published 2009).
